Test results from paper PMC3423979 (Nature chemical biology, 2012).
Where no end group is shown, it is not given here. [ ]: non-standard residue; d: D form. pY = N[C@@H](Cc1ccc(OP(=O)(O)O)cc1)C(=O)O

Assays:
[1] = target: full-length CrkL (residues 1–303) (human) (UniProt P46109); experiment: ITC
[2] = target: CrkL SH2 (residues 1–105) (human) (UniProt P46109); experiment: ITC
[3] = target: full-length CrkL (residues 1–303) (human, UniProt P46109 1-303); experiment: NMR titration
[4] = target: CrkL SH3^N (residues 120–188) (human, UniProt P46109 120-188); experiment: ITC
Chain of CrkL SH3^N (residues 120–188) (P46109 120-188): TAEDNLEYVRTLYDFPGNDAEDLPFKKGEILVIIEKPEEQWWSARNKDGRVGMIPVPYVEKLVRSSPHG

[5] = target: phosphorylated (pTyr207) CrkL (human, UniProt P46109 1-303, phosphotyrosine at 207 (pTyr207)); experiment: ITC
Chain of phosphorylated (pTyr207) CrkL (P46109 whole entry, the tested form may be a part): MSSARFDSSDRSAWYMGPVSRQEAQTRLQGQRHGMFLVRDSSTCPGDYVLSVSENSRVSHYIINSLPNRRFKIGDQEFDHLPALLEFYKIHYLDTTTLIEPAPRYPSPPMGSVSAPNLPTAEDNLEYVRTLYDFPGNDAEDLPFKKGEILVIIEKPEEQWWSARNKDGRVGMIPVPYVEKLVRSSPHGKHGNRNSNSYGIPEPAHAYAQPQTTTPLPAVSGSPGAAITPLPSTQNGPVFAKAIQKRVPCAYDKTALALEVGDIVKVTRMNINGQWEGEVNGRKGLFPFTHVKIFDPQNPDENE

[6] = target: CrkL SH2 (residues 1–105) (human, UniProt P46109 1-105); experiment: ITC
Chain of CrkL SH2 (residues 1–105) (P46109 1-105): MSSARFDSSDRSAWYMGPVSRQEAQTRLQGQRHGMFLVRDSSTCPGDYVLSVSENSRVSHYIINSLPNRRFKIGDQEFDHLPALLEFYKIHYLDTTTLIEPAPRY

Chain of CrkL SH2 (residues 1–105) (human) (P46109 1-105): as above
Chain of full-length CrkL (residues 1–303) (P46109 whole entry, the tested form may be a part): as the sequence (P46109 whole entry, the tested form may be a part) above
Chain of full-length CrkL (residues 1–303) (human) (P46109 whole entry, the tested form may be a part): as above

Molecule: CrkL-pTyr207-peptide
- Kd [1]: 23 µM
- Kd [2]: 7 µM

Molecule: YLQAPELPTKTRTS [PPII-peptide]
- binding result [3]: binds
- binding result [4]: binds
- binding result [5]: binds

Molecule: AGVSE[pY]ELPEDPR [FGFR-pTyr-peptide]
- binding result [6]: binds
